In the test the target is biotinylated full-length human IGF-I receptor (human) (UniProt P08069). The test can be described thus: ELISA titration, similar to that of the whole antibody. Background: In an ELISA, binding on a coated surface is turned into a signal by an enzyme label.

Sequence of Fab fragment of EM164 antibody (VH): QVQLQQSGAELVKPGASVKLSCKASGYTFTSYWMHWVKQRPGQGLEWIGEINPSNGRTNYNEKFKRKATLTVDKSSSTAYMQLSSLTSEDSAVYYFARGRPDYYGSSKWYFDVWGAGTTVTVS
Sequence of Fab fragment of EM164 antibody (VL): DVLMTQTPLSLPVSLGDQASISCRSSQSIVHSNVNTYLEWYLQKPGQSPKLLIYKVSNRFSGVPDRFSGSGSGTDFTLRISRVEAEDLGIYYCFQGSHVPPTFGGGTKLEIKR

The Kd is the concentration at which binding is half-saturated. A higher Kd goes with weaker binding. As to Fab fragment of EM164 antibody, the dissociation constant Kd was 0.3 nM.

(Values after patent publication US7538195.)
